ThT fluorescence of α-syn (25 μM) fibrillized with HtrA1 (5 μM) for 48h, relative to the signal without HtrA1 (% of the ThT signal without HtrA1) and sedimentation assay, α-syn (25 μM) with HtrA1 (5 μM), 24–72h: share of α-syn in the insoluble fraction (HtrA1 itself stays soluble with α-syn) (% of α-syn insoluble) data for 1 substance are collected here from article PMC10479434.

Assay [1] has as its target α-synuclein (wild type) (UniProt P37840).
Assay [2] shares this target. The source holds these as a separate data set.

Sequence of HtrA1ΔNTD (residues 156–480) (Q92743 156-480, stated change not applied): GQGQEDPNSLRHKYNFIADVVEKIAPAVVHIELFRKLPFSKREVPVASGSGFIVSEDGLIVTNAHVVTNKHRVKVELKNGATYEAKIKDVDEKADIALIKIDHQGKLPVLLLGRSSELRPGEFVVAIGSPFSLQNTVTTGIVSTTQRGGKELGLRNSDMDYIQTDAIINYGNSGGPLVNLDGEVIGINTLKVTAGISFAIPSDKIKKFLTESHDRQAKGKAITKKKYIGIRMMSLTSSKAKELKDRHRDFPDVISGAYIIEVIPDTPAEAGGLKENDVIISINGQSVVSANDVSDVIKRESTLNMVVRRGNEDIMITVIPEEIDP

Take “HtrA1ΔNTD (residues 156–480) (from UniProt Q92743 156-480) (domain or fragment)”: the ThT fluorescence of α-syn (25 μM) fibrillized with HtrA1 (5 μM) for 48h, relative to the signal without HtrA1 (% of the ThT signal without HtrA1) in the assay with α-synuclein (wild type) [1] stood at 20. For the same substance, the sedimentation assay, α-syn (25 μM) with HtrA1 (5 μM), 24–72h: share of α-syn in the insoluble fraction (HtrA1 itself stays soluble with α-syn) (% of α-syn insoluble) with α-synuclein (wild type) [2] was less than 10.
